Here are results for 3 molecules from patent US20040180360, “Multivalent aptamer therapeutics with improved pharmacodynamic properties and methods of making and using the same” (published 2004).

Data set [1] deals with T1, PDGF-BB (UniProt P01127 P01127:82-190). In words: 10 or 100 nM splint DNA enhances affinity of bidentate aptamer. As to conditions: chain copies: 2 (inferred, homodimer); linker region hybridised to 40-nt splint oligonucleotide. An excerpt: (§1) High molecular weight aptamer compositions capable of binding to platelet derived growth factor (PDGF) were produced using the following methods. A dimeric, or bidentate PDGF aptamer having the sequence shown in FIG. 4(A) was synthesized using standard reagents (oligonucleotides supplied by Integrated DNA Technologies, Coralville, Iowa). As shown in FIG. 4(B), the enhanced affinity of the bidentate aptamer to its target (either PDGF BB or AB) was greatest at higher protein concentrations where the binding conditions were 25° C. in 1×PBS with an RNA ligand concentration of <10 pM. […] This enhancement could reflect a splint-dependent reduction in rotational degrees of freedom within the linker region, leading to an increase in the effective concentration of the bidentate ligand. The addition of splint DNA to the monovalent aptamer to PDGF-BB had no effect on binding affinity (FIG. 5).
T1 sequence (P01127 82-190, one chain of several): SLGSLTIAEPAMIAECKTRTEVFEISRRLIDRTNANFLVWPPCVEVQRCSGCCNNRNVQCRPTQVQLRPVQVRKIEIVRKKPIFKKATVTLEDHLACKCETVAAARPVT

For data set [2], the target named is T1, PDGF-BB. In words: enhanced affinity vs monomer, greatest at higher protein concentration; 1x PBS, 25 C, ligand <10 pM. As to conditions: chain copies: 2 (inferred, homodimer).
Text: as §1

The target of the next data set is PDGF-AB (UniProt P04085;P01127 P04085:87-211,P01127:82-190). In words: enhanced affinity stated for PDGF BB or AB; 1x PBS, 25 C, ligand <10 pM.
PDGF-AB, sequence (P01127 82-190, chain 2 of 2, other chains not shown): as the sequence (P01127 82-190, one chain of several) above
Text: as §1

In the next data set the target is T2, TGFβ2 (UniProt P61812 P61812:303-414).
T2 sequence: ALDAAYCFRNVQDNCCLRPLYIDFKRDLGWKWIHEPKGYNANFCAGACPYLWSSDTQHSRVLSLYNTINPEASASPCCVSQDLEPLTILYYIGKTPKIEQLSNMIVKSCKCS
In words: competition; monodentate control with 5-bp extension; competes similarly to bidentates with linkers of 30 nt or more. As to conditions: chain copies: 2 (inferred, homodimer).

B1: PDGF bidentate aptamer + splint DNA (structured_DNA)
DNA 1: TACTCAGGGCACTGCAAGCAATTGTGGTCCCAATGGGCTGAGTATGTGGTCTATGTCGTCGTTCGCTAGTAGTTCCTGGGCTGCACTCGAGGCGTAGAATTCCCCCGATGCGCGCTGTTCTTACTCAGGGCACTGCAAGCAATTGTGGTCCCAATGGGCTGAGTAT
DNA 2: AAAGGAATTCTACGCCTCGAGTGCAGCCCAGGAACTATTT
Consider B1, for which the binding result in the data set with PDGF-BB [1] is “binds”.

B2: PDGF bidentate aptamer (ssDNA)
DNA: TACTCAGGGCACTGCAAGCAATTGTGGTCCCAATGGGCTGAGTATGTGGTCTATGTCGTCGTTCGCTAGTAGTTCCTGGGCTGCACTCGAGGCGTAGAATTCCCCCGATGCGCGCTGTTCTTACTCAGGGCACTGCAAGCAATTGTGGTCCCAATGGGCTGAGTAT
Regarding B2, the binding result in the data set with PDGF-BB [2] and with PDGF-AB was “binds” in each case. GCGCCGAGGUUAUUACAGAGUCUGUAUAGCUGUACUCGGCGC (ssRNA, 2'-F pyrimidines (inferred)) [ARC77 with 5-bp terminal extension]: the binding result in the data set with TGFβ2 is “binds”.
